{"source": "patent US7790697B2", "about": "“Compositions and methods for inhibiting the synthesis or expression of MMP-1” (Trustees of Dartmouth College, priority 2004, dated 2010)", "molecules": {"B1": {"name": "MMP-1 shRNA: Vector-expressed small hairpin RNA, SEQ ID NO:1 (sense) and SEQ ID NO:2 (antisense), specific to bases 234-252 of MMP-1 mRNA (nucleic acid)", "sense": "GATCCCCACCAGATGCTGAAACCCTGTTCAAGAGACAGGGTTTCAGCATCTGGTTTTTTGGAAA", "antisense": "AGCTTTTCCAAAAAACCAGATGCTGAAACCCTGTCTCTTGAACAGGGTTTCAGCATCTGGTGGG", "modifications": "the letters are possibly those of the target site"}}, "key": {"MMP-1 protein": {"tested_on": "MMP-1 protein", "assay": "ELISA for MMP-1 protein in serum-free medium of stable MDA-231 cells", "type": "cell-based, human", "conditions": "for ng of MMP-1 protein per μg of total protein: average ± S.D.", "procedure": "ELISA for MMP-1 Protein. MMP-1 protein in serum-free culture medium of stably transfected MDA-231 cells was quantified with the human MMP-1 BIOTRAK™ ELISA system that measures both latent and active enzyme (Amersham). Cells were grown in six-well culture dishes with 1 mL of serum-free medium, and after 24 hours of incubation, 100 μL of a 1:30 dilution of the medium was used for the ELISA assays. The cells remaining in the wells were lysed with 350 μL passive lysis buffer (PROMEGA®, Madison, Wis.), and 70 μl was used in a Bradford assay (BIO-RAD®, Hercules, Calif.) to determine the total protein content. The ng of MMP-1 protein from the ELISA results was normalized to μg total protein.\nAfter initial neomycin selection and isolation of individual stable cell lines, MMP-1 mRNA and protein levels were determined using quantitative RT-PCR (qRT-PCR) and ELISA. MMP-1 mRNA levels were measured in RNA harvested from stably transfected cell lines after a 24 hour incubation in serum-free medium and were normalized to GAPDH mRNA levels. MMP-1 protein levels were measured in the serum-free media of the cell lines after 24 hours of incubation and were normalized to total protein content of the cells. The ELISA measured total (active and zymogen) forms of MMP-1 protein. […] To control for differences introduced into the cell lines during selection, these three individual cell lines for each group were pooled, and all subsequent experiments were performed on pooled cells."}, "MMP-9 mRNA": {"tested_on": "MMP-9 mRNA", "assay": "Specificity qRT-PCR, MMP-9 mRNA in stable MDA-231 cells", "type": "cell-based, human", "conditions": "stable MDA-231 cell lines, 24 hour serum-free; group average ± S.D.; P=0.1 vs empty vector", "excerpt": "(§1) RNA Isolation and Real-Time RT-PCR. […] Real-Time PCR Primer Sequences. […] ID NO:7; MMP-1 reverse [NT] ID NO:8; MMP-2 forward [NT] ID NO:9; MMP-2 reverse [NT] ID NO:10; MMP-9 forward [NT] ID NO:11; MMP-9 reverse [NT] ID NO:12; MMP-13 forward [NT], SEQ ID NO:13; MMP-13 reverse [NT] ID NO:14; MMP-14 forward [NT] ID NO:15; MMP-14 reverse [NT] ID NO:16; GAPDH forward [NT] ID NO:17; GAPDH reverse [NT] ID NO:18; eGFP forward [NT] ID NO:19; eGFP reverse [NT] ID NO:20. Real-Time PCR Standards."}, "MMP-13 mRNA": {"tested_on": "MMP-13 mRNA", "assay": "Specificity qRT-PCR, MMP-13 mRNA in stable MDA-231 cells", "type": "cell-based, human", "conditions": "stable MDA-231 cell lines, 24 hour serum-free; group average ± S.D.; P=0.3 vs empty vector", "excerpt": "as §1"}, "MDA-231 cells [1]": {"tested_on": "MDA-231 cells", "assay": "Cell proliferation assay (MTT)", "type": "cell-based", "conditions": "from 24 to 48 hours (in 24 hours); p=0.13 vs empty vector", "procedure": "Cell Proliferation Assay. The proliferation rate of the stably transfected MDA-231 cell lines at 24 and 48 hours was determined with a MTT assay as described in the manufacturer's protocol (ATCC). The optimum cell count was 10,000 cells per well of a 96-well tissue culture dish.\nTherefore, the only measured differences between the two groups of cell lines were the levels of MMP-1 mRNA and protein."}, "MDA-231 cells [2]": {"tested_on": "MDA-231 cells", "assay": "Tumorigenesis studies in nude mice, mammary fat pad injection of MDA-231 cells", "type": "in vivo", "procedure": "Tumorigenesis Studies in Mice. Pooled MDA-231 stable cell lines containing either the empty vector or the MMP-1 shRNA (1×10^6 cells/100 μL HBSS) were injected into the 4th inguinal fat pad of twenty-one female, 6-week-old nude mice (NU/NU; Charles River Laboratories, Wilmington, Mass.) using 28 gauge×½″ single-use insulin needles. Mice were examined weekly until tumors were grossly apparent, then they were examined several times per week. Each tumor was measured twice with Vernier calipers, and tumor volume was calculated using the formula: 4/3πr^3. When the two measurements differed, the smaller radius measurement was squared and multiplied by the largest radius measurement. This number was then substituted for the r^3 portion of the formula.\nThe in vivo efficacy of the shRNA-mediated reduction of MMP-1 in the MDA-231 cells was analyzed. Nude mice were injected in the fourth inguinal mammary fat pad with MDA-231 cells containing either the empty vector or the MMP-1 shRNA. At week 6, tumors began to appear in the inguinal pad of several mice and at week 11, the mice were sacrificed."}}}
{"molecule": "B1", "values": [{"measurement": "ng of MMP-1 protein per μg of total protein", "setting": "MMP-1 protein; Group of cell lines D1, Y2, Y7, P=0.002 vs empty vector", "result": "0.46 ± 0.04 ng per μg of total protein"}, {"measurement": "ng of MMP-1 protein per μg of total protein", "setting": "MMP-1 protein; MDA-231 cell line D1", "result": "0.49 ± 0.03 ng per μg of total protein"}, {"measurement": "ng of MMP-1 protein per μg of total protein", "setting": "MMP-1 protein; MDA-231 cell line Y2", "result": "0.47 ± 0.01 ng per μg of total protein"}, {"measurement": "ng of MMP-1 protein per μg of total protein", "setting": "MMP-1 protein; MDA-231 cell line Y7", "result": "0.42 ± 0.04 ng per μg of total protein"}, {"measurement": "reduction in MMP-1 protein levels compared to empty vector cell lines", "setting": "MMP-1 protein; three stable MDA-231 cell lines, 24 hour serum-free medium", "result": "greater than 90%"}, {"measurement": "MMP-9 mRNA level", "setting": "MMP-9 mRNA", "result": "197.3 ± 106 copies of the target gene/pg GAPDH"}, {"measurement": "MMP-13 mRNA level", "setting": "MMP-13 mRNA", "result": "0.5 ± 0.2 copies of the target gene/pg GAPDH"}, {"measurement": "fold increase in metabolic activity", "setting": "MDA-231 cells [1]", "result": "2.03±0.06", "unit": "fold"}, {"measurement": "average tumor size at time of sacrifice", "setting": "MDA-231 cells [2]; week 11, mean±s.e., n=10, p=0.027 vs empty vector", "result": "272±117", "unit": "mm^3"}, {"measurement": "frequency of tumor formation", "setting": "MDA-231 cells [2]; week 11, n=23, p=0.11 vs empty vector (57%), Fisher's exact test", "result": 36, "unit": "%"}]}
